According to publication PMC3958483, “Fine Specificity and Molecular Competition in SLAM Family Receptor Signalling” (PLoS ONE, 2014):

T1: EAT-2 (Homo sapiens, UniProt O14796)
T1 sequence (O14796 1-132): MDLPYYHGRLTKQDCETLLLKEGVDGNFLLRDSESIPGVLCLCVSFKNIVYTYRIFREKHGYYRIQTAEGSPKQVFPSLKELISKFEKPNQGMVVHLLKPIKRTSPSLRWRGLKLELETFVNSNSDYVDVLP


Biological target: T1, EAT-2
Experiment: EAT-2 expression in NK92 after RNA interference
Format: cell-based
Details: shRNA, NK92 cells; from 0.44 μM
Protocol: Lentiviral constructs expressing gene-specific shRNAs in vector pLKO.1 were obtained from Open Biosystems. […] As a non-targeting control, the hairpin sequence 5′-[…] was expressed in pLKO.1. Lentiviral particles were produced through polyethylenimine (PEI-Sigma) co-transfection of 293 T cells with pLKO.1 along with packaging vectors pMD2.G and pSPAX2 (Addgene; Didier Trono Laboratory). Virus was produced in RPMI 1640/10% heat-inactivated FCS for 48–72 hours. Viral supernatants were collected and NK92 cells were transduced twice overnight in the presence of 1000 U/ml IL-2. Cells with stable shRNA expression were selected using 3 μg/ml puromycin (Invitrogen) for 72 hours prior to use in functional assays.
For quantitation of protein expression, NK92 cell lysates were prepared using buffer (150 mM NaCl, 20 mM Tris-HCl pH 7.4, 10% glycerol, 2 mM EDTA, 10 mM NaF, 1 mM PMSF) containing 0.5% Triton X-100. Lysates were resolved by SDS-PAGE under reducing conditions using Novex gradient gels and transferred to nitrocellulose membranes for western blotting by standard protocols. […] SHP-2 levels in 10^5 cell equivalents were analysed in a similar manner with recombinant SHP-2 N+C as a standard (25, 50 and 100 ng) and anti-SHP-2 (Cell Signaling #3752). […] Quantitation of protein expression was performed using LI-COR Odyssey Sa software version 1.0. […]

Row | Molecule | intracellular EAT-2 concentration after 50% knockdown
1 | EAT-2: small SH2 domain containing adapter protein (protein, left off: His tag, end not stated, state not stated, small SH2 domain containing adapter protein) MDLPYYHGRLTKQDCETLLLKEGVDGNFLLRDSESIPGVLCLCVSFKNIVYTYRIFREKHGYYRIQTAEGSPKQVFPSLKELISKFEKPNQGMVVHLLKPIKRTSPSLRWRGLKLELETFVNSNSDYVDVLP | approximately 0.2 μM

Test system: not listed separately
Experiment: Pull-down with phosphorylated CD244 ITSM1 from NK cell lysates, LC-MS/MS
Format: binding
Details: human NK cell lysates; compared with control phosphopeptide SHIP-1 Y865
Protocol: For pull-down of associated proteins, streptavidin Sepharose (GE Healthcare) was pre-coated with saturating amounts of peptide or EAT-2. NK92 cells (4×10^8) were treated with 500 μM pervanadate for 15 minutes, then lysed in PBS, 1% Triton X-100, 1 mM sodium orthovanadate in the presence of mammalian protease inhibitor solution (Sigma). Lysates were pre-cleared by centrifugation, followed by incubation with streptavidin Sepharose. Peptide or EAT-2-coated streptavidin beads were incubated with NK92 lysates for 2 hours at 4°C with rotation. Beads were washed once with 15 ml ice cold PBS/1% (v/v) Triton X-100. Bound protein was eluted using 100 mM glycine-HCl pH 2.5.
Protein samples were prepared for mass spectrometry as described previously. Briefly, eluted proteins were spun onto the membranes of Vivacon 500 filters (10,000 MWCO – Sartorius). Membranes were washed once with PBS then proteins were denatured with 8 M urea, reduced with 10 mM DTT in 25 mM ammonium bicarbonate buffer, followed by alkylation with 50 mM iodoacetamide. Proteins were then digested overnight with trypsin. Tryptic peptides were then eluted from the membrane and analyzed on an Ultimate 3000 HPLC-coupled Orbitrap XL mass spectrometer. Proteins were identified by liquid chromatography-coupled tandem mass-spectrometry (LC-MS/MS). Raw data files were converted to mzXML format using ReADW (v. 4.2.1) and submitted to the Central Proteomics Facilities Pipeline for database comparison and peptide identification. Searching against the International Protein Index (IPI) human protein sequence database for protein identification, protein and peptide hits were statistically validated by applying a 1% false discovery rate (FDR) by searching against a concatenated target/decoy database. Datasets were searched with variable peptide modifications for phosphotyrosine, phosphoserine, phosphothreonine, oxidation of methionine and deamination.
Protein identification data were exported into ProteinCenter (v3.8.3013 – Thermo Fisher) for filtering and annotation. Results were filtered to remove any proteins with less than 3 unique peptides, less than 10 percent sequence coverage, or median protein probability scores less than 0.5. To establish sample specificity, any protein with at least 10-fold greater sequence coverage in one sample compared with the other was considered to be specific for that sample.
Similarly, differences in specificity of inhibitory SH2 domain containing proteins for ITSMs are relevant to understanding mechanisms of inhibition by ITSMs. We focused on CD244 ITSMs to establish general paradigms.

Row | Molecule | pull-down by CD244 ITSM1
2 | EAT-2: small SH2 domain containing adapter protein (protein, left off: His tag, end not stated, state not stated, small SH2 domain containing adapter protein) MDLPYYHGRLTKQDCETLLLKEGVDGNFLLRDSESIPGVLCLCVSFKNIVYTYRIFREKHGYYRIQTAEGSPKQVFPSLKELISKFEKPNQGMVVHLLKPIKRTSPSLRWRGLKLELETFVNSNSDYVDVLP | identifying SAP and EAT-2
3 | SHIP-1: SH2 domain containing phosphatase (protein) MVPCWNHGNITRSKAEELLSRTGKDGSFLVRASESISRAYALCVLYRNCVYTYRILPNEDDKFTVQASEGVSMRFFTKLDQLIEFYKKENMGLVTHLQYPVPLEEEDTGDDPEEDTVESVVSPPELPPRNIPLTASSCEAKEVPFSNENPRATETSRPSLSETLFQRLQSMDTSGLPEEHLKAIQDYLSTQLAQDSEFVKTGSSSLPHLKKLTTLLCKELYGEVIRTLPSLESLQRLFDQQLSPGLRPRPQVPGEANPINMVSKLSQLTSLLSSIEDKVKALLHEGPESPHRPSLIPPVTFEVKAESLGIPQKMQLKVDVESGKLIIKKSKDGSEDKFYSHKKILQLIKSQKFLNKLVILVETEKEKILRKEYVFADSKKREGFCQLLQQMKNKHSEQPEPDMITIFIGTWNMGNAPPPKKITSWFLSKGQGKTRDDSADYIPHDIYVIGTQEDPLSEKEWLEILKHSLQEITSVTFKTVAIHTLWNIRIVVLAKPEHENRISHICTDNVKTGIANTLGNKGAVGVSFMFNGTSLGFVNSHLTSGSEKKLRRNQNYMNILRFLALGDKKLSPFNITHRFTHLFWFGDLNYRVDLPTWEAETIIQKIKQQQYADLLSHDQLLTERREQKVFLHFEEEEITFAPTYRFERLTRDKYAYTKQKATGMKYNLPSWCDRVLWKSYPLVHVVCQSYGSTSDIMTSDHSPVFATFEAGVTSQFVSKNGPGTVDSQGQIEFLRCYATLKTKSQTKFYLEFHSSCLESFVKSQEGENEEGSEGELVVKFGETLPKLKPIISDPEYLLDQHILISIKSSDSDESYGEGCIALRLEATETQLPIYTPLTHHGELTGHFQGEIKLQTSQGKTREKLYDFVKTERDESSGPKTLKSLTSHDPMKQWEVTSRAPPCSGSSITEIINPNYMGVGPFGPPMPLHVKQTLSPDQQPTAWSYDQPPKDSPLGPCRGESPPTPPGQPPISPKKFLPSTANRGLPPRTQESRPSDLGKNAGDTLPQEDLPLTKPEMFENPLYGSLSSFPKPAPRKDQESPKMPRKEPPPCPEPGILSPSIVLTKAQEADRGEGPGKQVPAPRLRSFTCSSSAEGRAAGGDKSQGKPKTPVSSQAPVPAKRPIKPSRSEINQQTPPTPTPRPPLPVKSPAVLHLQHSKGRDYRDNTELPHHGKHRPEEGPPGPLGRTAMQ | pulled down by the ITSM peptide
4 | SHIP-2: SH2 domain containing phosphatase (protein) MASACGAPGPGGALGSQAPSWYHRDLSRAAAEELLARAGRDGSFLVRDSESVAGAFALCVLYQKHVHTYRILPDGEDFLAVQTSQGVPVRRFQTLGELIGLYAQPNQGLVCALLLPVEGEREPDPPDDRDASDGEDEKPPLPPRSGSTSISAPTGPSSPLPAPETPTAPAAESAPNGLSTVSHDYLKGSYGLDLEAVRGGASHLPHLTRTLATSCRRLHSEVDKVLSGLEILSKVFDQQSSPMVTRLLQQQNLPQTGEQELESLVLKLSVLKDFLSGIQKKALKALQDMSSTAPPAPQPSTRKAKTIPVQAFEVKLDVTLGDLTKIGKSQKFTLSVDVEGGRLVLLRRQRDSQEDWTTFTHDRIRQLIKSQRVQNKLGVVFEKEKDRTQRKDFIFVSARKREAFCQLLQLMKNKHSKQDEPDMISVFIGTWNMGSVPPPKNVTSWFTSKGLGKTLDEVTVTIPHDIYVFGTQENSVGDREWLDLLRGGLKELTDLDYRPIAMQSLWNIKVAVLVKPEHENRISHVSTSSVKTGIANTLGNKGAVGVSFMFNGTSFGFVNCHLTSGNEKTARRNQNYLDILRLLSLGDRQLNAFDISLRFTHLFWFGDLNYRLDMDIQEILNYISRKEFEPLLRVDQLNLEREKHKVFLRFSEEEISFPPTYRYERGSRDTYAWHKQKPTGVRTNVPSWCDRILWKSYPETHIICNSYGCTDDIVTSDHSPVFGTFEVGVTSQFISKKGLSKTSDQAYIEFESIEAIVKTASRTKFFIEFYSTCLEEYKKSFENDAQSSDNINFLKVQWSSRQLPTLKPILADIEYLQDQHLLLTVKSMDGYESYGECVVALKSMIGSTAQQFLTFLSHRGEETGNIRGSMKVRVPTERLGTRERLYEWISIDKDEAGAKSKAPSVSRGSQEPRSGSRKPAFTEASCPLSRLFEEPEKPPPTGRPPAPPRAAPREEPLTPRLKPEGAPEPEGVAAPPPKNSFNNPAYYVLEGVPHQLLPPEPPSPARAPVPSATKNKVAITVPAPQLGHHRHPRVGEGSSSDEESGGTLPPPDFPPPPLPDSAIFLPPSLDPLPGPVVRGRGGAEARGPPPPKAHPRPPLPPGPSPASTFLGEVASGDDRSCSVLQMAKTLSEVDYAPAGPARSALLPGPLELQPPRGLPSDYGRPLSFPPPRIRESIQEDLAEEAPCLQGGRASGLGEAGMSAWLRAIGLERYEEGLVHNGWDDLEFLSDITEEDLEEAGVQDPAHKRLLLDTLQLSK | pulled down by the ITSM peptide
5 | c-Src Tyrosine Kinase (CSK): SH2 domain containing protein pulled down by CD244 ITSM1 (protein) MSAIQAAWPSGTECIAKYNFHGTAEQDLPFCKGDVLTIVAVTKDPNWYKAKNKVGREGIIPANYVQKREGVKAGTKLSLMPWFHGKITREQAERLLYPPETGLFLVRESTNYPGDYTLCVSCDGKVEHYRIMYHASKLSIDEEVYFENLMQLVEHYTSDADGLCTRLIKPKVMEGTVAAQDEFYRSGWALNMKELKLLQTIGKGEFGDVMLGDYRGNKVAVKCIKNDATAQAFLAEASVMTQLRHSNLVQLLGVIVEEKGGLYIVTEYMAKGSLVDYLRSRGRSVLGGDCLLKFSLDVCEAMEYLEGNNFVHRDLAARNVLVSEDNVAKVSDFGLTKEASSTQDTGKLPVKWTAPEALREKKFSTKSDVWSFGILLWEIYSFGRVPYPRIPLKDVVPRVEKGYKMDAPDGCPPAVYEVMKNCWHLDAAMRPSFLQLREQLEHIKTHELHL | pulled down by the ITSM peptide
6 | SAP: small SH2 domain containing adapter protein (protein, UniProt O60880 1-128, looked up) SH2 domain-containing protein …: MDAVAVYHGKISRETGEKLLLATGLDGSYLLRDSESVPGVYCLCVLYHGYIYTYRVSQTETGSWSAETAPGVHKRYFRKIKNLISAFQKPDQGIVIPLQYPVEKKSSARSTQGTTGIREDPDVCLKAP | identifying SAP and EAT-2
